Reference: US20180009871A1 (INTARCIA THERAPEUTICS, published 2018)
Where no end group is shown, it is not given here. [ ]: non-standard residue; d: D form. Aib = CC(C)(N)C(=O)O

Key:
[1] = molecular target: human glucagon receptor (GCGR) (human, UniProt P47871 26-477); test: cell-based or functional assay
[2] = molecular target: human GLP-1 receptor (GLP-1R) (human, UniProt P43220 24-463); test: cell-based or functional assay
Sequence of human GLP-1 receptor (GLP-1R) (P43220 24-463): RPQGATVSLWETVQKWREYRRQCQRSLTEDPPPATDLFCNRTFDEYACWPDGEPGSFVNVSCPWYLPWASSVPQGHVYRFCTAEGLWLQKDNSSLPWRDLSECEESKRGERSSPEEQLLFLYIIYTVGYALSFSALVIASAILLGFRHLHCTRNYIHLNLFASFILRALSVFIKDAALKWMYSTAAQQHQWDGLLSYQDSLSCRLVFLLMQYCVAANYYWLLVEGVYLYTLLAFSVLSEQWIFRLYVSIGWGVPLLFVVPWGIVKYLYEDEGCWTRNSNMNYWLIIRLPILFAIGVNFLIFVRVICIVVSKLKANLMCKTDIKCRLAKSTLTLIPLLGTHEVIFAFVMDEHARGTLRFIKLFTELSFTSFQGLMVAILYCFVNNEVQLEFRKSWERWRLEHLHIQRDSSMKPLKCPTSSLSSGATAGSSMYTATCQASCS

Binder	hGCGR pEC50 (cAMP) [1]	hGLP1 pEC50 (cAMP) [2]
YSHGTFTSDHSKWLD[Aib]KRAQEFV[Aib]WLEDEPSSGAPPPS-OH (N-terminus assumed; SMILES CC(C)C[C@H](NC(=O)[C@H](Cc1c[nH]c2ccccc12)NC(=O)[C@H](CCCCN)NC(=O)[C@H](CO)NC(=O)[C@H](Cc1c[nH]cn1)NC(=O)[C@H](CC(=O)O)NC(=O)[C@H](CO)NC(=O)[C@@H](NC(=O)[C@H](Cc1ccccc1)NC(=O)[C@@H](NC(=O)CNC(=O)[C@H](Cc1c[nH]cn1)NC(=O)[C@H](CO)NC(=O)[C@@H](N)Cc1ccc(O)cc1)[C@@H](C)O)[C@@H](C)O)C(=O)N[C@@H](CC(=O)O)C(=O)NC(C)(C)C(=O)N[C@@H](CCCCN)C(=O)N[C@@H](CCCNC(=N)N)C(=O)N[C@@H](C)C(=O)N[C@@H](CCC(N)=O)C(=O)N[C@@H](CCC(=O)O)C(=O)N[C@@H](Cc1ccccc1)C(=O)N[C@H](C(=O)NC(C)(C)C(=O)N[C@@H](Cc1c[nH]c2ccccc12)C(=O)N[C@@H](CC(C)C)C(=O)N[C@@H](CCC(=O)O)C(=O)N[C@@H](CC(=O)O)C(=O)N[C@@H](CCC(=O)O)C(=O)N1CCC[C@H]1C(=O)N[C@@H](CO)C(=O)N[C@@H](CO)C(=O)NCC(=O)N[C@@H](C)C(=O)N1CCC[C@H]1C(=O)N1CCC[C@H]1C(=O)N1CCC[C@H]1C(=O)N[C@@H](CO)C(=O)O)C(C)C) [Compound A33]	10.9 pEC50	< 9 pEC50
YTHGTFTSDYSKWLD[Aib]ARAQEFV[Aib]WLEDEPSSGAPPPS-OH (N-terminus assumed; SMILES CC(C)C[C@H](NC(=O)[C@H](Cc1c[nH]c2ccccc12)NC(=O)[C@H](CCCCN)NC(=O)[C@H](CO)NC(=O)[C@H](Cc1ccc(O)cc1)NC(=O)[C@H](CC(=O)O)NC(=O)[C@H](CO)NC(=O)[C@@H](NC(=O)[C@H](Cc1ccccc1)NC(=O)[C@@H](NC(=O)CNC(=O)[C@H](Cc1c[nH]cn1)NC(=O)[C@@H](NC(=O)[C@@H](N)Cc1ccc(O)cc1)[C@@H](C)O)[C@@H](C)O)[C@@H](C)O)C(=O)N[C@@H](CC(=O)O)C(=O)NC(C)(C)C(=O)N[C@@H](C)C(=O)N[C@@H](CCCNC(=N)N)C(=O)N[C@@H](C)C(=O)N[C@@H](CCC(N)=O)C(=O)N[C@@H](CCC(=O)O)C(=O)N[C@@H](Cc1ccccc1)C(=O)N[C@H](C(=O)NC(C)(C)C(=O)N[C@@H](Cc1c[nH]c2ccccc12)C(=O)N[C@@H](CC(C)C)C(=O)N[C@@H](CCC(=O)O)C(=O)N[C@@H](CC(=O)O)C(=O)N[C@@H](CCC(=O)O)C(=O)N1CCC[C@H]1C(=O)N[C@@H](CO)C(=O)N[C@@H](CO)C(=O)NCC(=O)N[C@@H](C)C(=O)N1CCC[C@H]1C(=O)N1CCC[C@H]1C(=O)N1CCC[C@H]1C(=O)N[C@@H](CO)C(=O)O)C(C)C) [Compound A35]	13.2 pEC50	< 9 pEC50
YTHGTFTSDHSKWLD[Aib]KRAQEFV[Aib]WLEDEPSSGAPPPS-OH (N-terminus assumed; SMILES CC(C)C[C@H](NC(=O)[C@H](Cc1c[nH]c2ccccc12)NC(=O)[C@H](CCCCN)NC(=O)[C@H](CO)NC(=O)[C@H](Cc1c[nH]cn1)NC(=O)[C@H](CC(=O)O)NC(=O)[C@H](CO)NC(=O)[C@@H](NC(=O)[C@H](Cc1ccccc1)NC(=O)[C@@H](NC(=O)CNC(=O)[C@H](Cc1c[nH]cn1)NC(=O)[C@@H](NC(=O)[C@@H](N)Cc1ccc(O)cc1)[C@@H](C)O)[C@@H](C)O)[C@@H](C)O)C(=O)N[C@@H](CC(=O)O)C(=O)NC(C)(C)C(=O)N[C@@H](CCCCN)C(=O)N[C@@H](CCCNC(=N)N)C(=O)N[C@@H](C)C(=O)N[C@@H](CCC(N)=O)C(=O)N[C@@H](CCC(=O)O)C(=O)N[C@@H](Cc1ccccc1)C(=O)N[C@H](C(=O)NC(C)(C)C(=O)N[C@@H](Cc1c[nH]c2ccccc12)C(=O)N[C@@H](CC(C)C)C(=O)N[C@@H](CCC(=O)O)C(=O)N[C@@H](CC(=O)O)C(=O)N[C@@H](CCC(=O)O)C(=O)N1CCC[C@H]1C(=O)N[C@@H](CO)C(=O)N[C@@H](CO)C(=O)NCC(=O)N[C@@H](C)C(=O)N1CCC[C@H]1C(=O)N1CCC[C@H]1C(=O)N1CCC[C@H]1C(=O)N[C@@H](CO)C(=O)O)C(C)C) [Compound A34]	10.3 pEC50	< 9 pEC50
